Data from patent US20190352335A1, “BRAIN TARGETING LONG-ACTING PROTEIN CONJUGATE” (HANMI PHARM. CO., LTD., priority 2016, published 2019).

Experiment: In vitro specific enzyme activity of idursulfase conjugate (4MU fluorescence)
Assay type: biochemical
Settings: substrate 4MU-α-idopyraA-2, 37° C. 4 hours, then α-iduronidase 37° C. 24 hours; FIG. 5
Protocol: To examine the presence of any change in specific activity of idursulfase according to the preparation of idursulfase-10 K PEG-Fc-BTP22 conjugate, an in vitro experiment for specific activity of enzymes was performed, 4-Methylumbelliferyl α-L-idopyranosiduronic acid-2-sulfate sodium salt (4MU-α-idopyraA-2), which is known as an enzyme substrate for idursulfase, was reacted with idursulfase β and IDS-Fc-BTP22 at 37° C. for 4 hours, and then, reacted with α-iduronidase, which is a secondary reaction enzyme, at 37° C. for 24 hours. The enzyme activity of 4-methylumbelliferone (4 MU), the final product, was measured by the measurement of the fluorescence of the corresponding substance (FIG. 5).
In particular, the values of enzyme activity were calculated in terms of specific activity per converted rate of weight (μg).

B1: idursulfase (protein, UniProt P22304 34-455; P22304 456-550, looked up)
Iduronate 2-sulfatase 42 kDa …: TDALNVLLIIVDDLRPSLGCYGDKLVRSPNIDQLASHSLLFQNAFAQQAVCAPSRVSFLTGRRPDTTRLYDFNSYWRVHAGNFSTIPQYFKENGYVTMSVGKVFHPGISSNHTDDSPYSWSFPPYHPSSEKYENTKTCRGPDGELHANLLCPVDVLDVPEGTLPDKQSTEQAIQLLEKMKTSASPFFLAVGYHKPHIPFRYPKEFQKLYPLENITLAPDPEVPDGLPPVAYNPWMDIRQREDVQALNISVPYGPIPVDFQRKIRQSYFASVSYLDTQVGRLLSALDDLQLANSTIIAFTSDHGWALGEHGEWAKYSNFDVATHVPLIFYVPGRTASLPEAGEKLFPYLDPFDSASQLMEPGRQSMDLVELVSLFPTLAGLAGLQVPPRCPVPSFHVELCREGKNLLKHFRFRDLEEDPYLPG
Iduronate 2-sulfatase 14 kDa …: NPRELIAYSQYPRPSDIPQWNSDKPSLKDIKIMGYSIRTIDYRYTVWVGFNPDEFLANFSDIHAGELYFVDSDPLQDHNMYNDSQGGDLFQLLMP
notes: purified type of iduronate-2-sulfatase (Shire, Ireland), approximately 72 kDa
- enzyme activity (specific activity per weight of idursulfase part): 23.4 ± 1.94 nmol/min/µg
